Assay [1] concerns the target Recombinant S1 protein of MERS-CoV (MERS-CoV) (UniProt K9N5Q8).
Assay [2] has as its target Recombinant S1 protein of SARS-CoV-2 (SARS-CoV-2) (UniProt P0DTC2).

As to “6×His tag-AVI tag-DPP4 fusion protein, biotinylated and labeled with color latex (L-SB-DPP4) (receptor; other documents disagree on this pair)”, in assay [1], the sensitivity of the test strip turned out to be 10 nM.

Consider “ACE2-AVI tag-6×His tag fusion protein, biotinylated and labeled with color latex (L-SB-ACE2) (receptor; other documents disagree on this pair)”, for which the sensitivity of the test strip in assay [2] is 10 nM.

Values taken from patent publication US20230212589A1.
